Experimental data from article PMC8623809.

Tests used:
[1] = target: bovine submaxillary mucin (BSM), Sigma Type I-S; test: Intrinsic tryptophan fluorescence quenching (excitation 280 nm, emission maximum 326 nm), Stern-Volmer analysis; details: 100 mM PBS (composition not further stated), 100 mM PBS adjusted with HCl to pH 7, 5 and 3 (same buffer at all pH values)
[2] = target: porcine gastric mucin (PGM), Sigma Type III; test: as above; details: 100 mM PBS (composition not further stated), 100 mM PBS adjusted with HCl to pH 7, 5 and 3 (same buffer at all pH values)

beta-lactoglobulin (BLG)
Ksv (Stern-Volmer constant, static quenching) (not printed (uM^-1 inferred)) ([1]; pH 3): 0.19
Ksv (Stern-Volmer constant, static quenching) (not printed (uM^-1 inferred)) ([1]; pH 5): 0.15
Ksv (Stern-Volmer constant, static quenching) (not printed (uM^-1 inferred)) ([1]; pH 7): 0.23
Ksv (Stern-Volmer constant, static quenching) (not printed (uM^-1 inferred)) ([2]; pH 3): 1.25
Ksv (Stern-Volmer constant, static quenching) (not printed (uM^-1 inferred)) ([2]; pH 5): 0.92
Ksv (Stern-Volmer constant, static quenching) (not printed (uM^-1 inferred)) ([2]; pH 7): 1.08
